Experimental data: patent US20230137139A1, “BIOSYNTHESIS OF CANNABINOIDS AND C[…]” (priority 2020, published 2023)

Experiments:
[1] = system: CBCA, THCA, and CBDA production; assay: In vivo TS activity assay, Example 2 protein engineering of A. niger CBCAS, cultures fed olivetolic acid; assay type: cell-based, S. cerevisiae; details: for average CBCA titer compared with the A. niger positive control / Mean CBCA / Mean CBDA / Mean THCA: secondary screen; for Mean CBCA / Mean CBDA / Mean THCA: olivetolic acid (Table 8); for % CBCA / % CBDA / % THCA: share of terminal cannabinoid product profile
Method: (§1) An assay to detect TS activity was conducted as follows: each thawed glycerol stock of candidate CBCAS transformants was stamped into a well of YEP+4% dextrose media. Samples were incubated at 30° C. in a shaking incubator for 2 days. A portion of each of the resulting cultures was stamped into a well of YEP+4% galactose+1 mM olivetolic acid (FIG. 1 Structure 6a). Samples were incubated at 20° C. and shaken in a shaking incubator for 4 days. Every 24 hours during those 4 days, 2% galactose and 1 mM olivetolic acid were spiked into the cultures. Sodium citrate buffer adjusted to pH 5.5 was added to each well at a final concentration of 100 mM. Samples were incubated at 20° C. and shaken in a shaking incubator for 2 days. A portion of each of the resulting production cultures was stamped into a well of phosphate buffered saline (PBS). Optical measurements were taken on a plate reader, with absorbance measured at 600 nm and fluorescence at 528 nm with 485 nm excitation. Samples were incubated at 30° C. in a shaking incubator for 2 days. 100% methanol was stamped into the production cultures in half-height deepwell plates. Plates were heat sealed and frozen. Samples were then thawed for 30 min and spun down at 4° C. A portion of the supernatant was stamped into half-area 96 well plates. CBCA, THCA, and CBDA production in the samples was quantified via liquid chromatography-mass spectrometry (LC-MS).
(§2) To determine whether engineering of the A. niger CBCAS identified in Example 1 (corresponding to SEQ ID NO: 29 (with signal peptides); SEQ ID NO: 27 (without signal peptides and including an N-terminal methionine (UniProt accession No. A0A254UC34)); or SEQ ID NO: 25 (without signal peptides and without the N-terminal methionine)), could alter CBCAS substrate specificity, product specificity and/or amounts of products produced, point mutations were generated in A. niger CBCAS and the mutant versions of the protein were expressed in S. cerevisiae. A library containing 1047 A. niger CBCAS mutants was generated and screened. As in Example 1, each CBCAS mutant in the library, as well as the enzymes expressed by positive control strains, included an N-terminal MFalpha2 signal peptide (SEQ ID NO: 16) (with a methionine residue added at the N-terminus of the MFalpha2 signal peptide) and a C-terminal HDEL signal peptide (SEQ ID NO: 17).
Production of compounds of Formulae (9), (10), and/or (11), including compounds of Formulae (9a), (10a), and/or (11a) by strains expressing the mutated versions of A. niger CBCAS was quantified and compared to the production of the same compounds by a strain expressing wild-type A. niger CBCAS, a strain expressing a C. sativa THCAS, and a strain expressing a C. sativa CBDAS. The strains were screened using the same assay described in Example 1. Production of CBCA, THCA, and/or CBDA in the samples was quantified via LC-MS.
(§3) Of the original 1047 library members, 55 strains were elevated to a secondary screen to verify CBCA production. The experimental protocol for the secondary screen was identical to the primary screen, except that additional biological replicates were included per strain, and replicate production cultures for each strain were separately fed 1 mM boluses of olivetolic acid or 1 mM boluses of divaric acid. All strains were screened in quadruplicate.

[2] = system: CBCVA, THCVA, and CBDVA production; assay: In vivo TS activity assay, Example 2 protein engineering of A. niger CBCAS, cultures fed divaric acid; assay type: cell-based, S. cerevisiae; details: for Mean CBCVA / Mean CBDVA / Mean THCVA: S. cerevisiae strains expressing A. niger CBCAS mutants; for Mean CBCVA / Mean CBDVA / Mean THCVA / average CBCVA titer compared with the A. niger positive control: secondary screen; for Mean CBCVA / Mean CBDVA / Mean THCVA / % CBCVA / % CBDVA / % THCVA: fed divaric acid; for % CBCVA / % CBDVA / % THCVA: share of terminal cannabinoid product profile
Method: as §1, §2, §3

| Molecule | average CBCA titer compared with the A. niger positive control [1] | Mean CBCA [1] | Mean CBDA [1] | Mean THCA [1] | % CBCA [1] | % CBDA [1] | % THCA [1] | Mean CBCVA [2] | Mean CBDVA [2] | Mean THCVA [2] | % CBCVA [2] | % CBDVA [2] | % THCVA [2] | average CBCVA titer compared with the A. niger positive control [2] |
| --- | --- | --- | --- | --- | --- | --- | --- | --- | --- | --- | --- | --- | --- | --- |
| t878470 (protein, expressed in S. cerevisiae strain) MGNTTSIAGRDCLISALGGNSALAVFPNELLWTADVHEYNLNLPVTPAAITYPETAQQIAAVVKCASDYDYKVQARSGGHSFGNYGLGGADGAVVVDMKHFTQFSMDDETYEAVIGPGTTLNDVDIELYNNGKRAMAHGVCPTIKTGGHFTIGGLGPTARQWGLALDHVEEVEVVLANSSIVRASNTQNQDVFFAVKGAAANFGIVTEFKVRTEPAPGLAVQYSYTFNLGSTAEKAQFVKDWQSFISAKNLTRQFYNNMVIFDGDIILEGLFFGSKEQYDALGLEDHFAPKNPGNILVLTDWLGMVGHALEDTILKLVGNTPTWFYAKSLGFRQDTLIPSAGIDEFFEYIANHTAGTPAWFVTLSLEGGAINDVAEDATAYAHRDVLFWVQLFMVNPVGPISDTTYEFTDGLYDVLARAVPESVGHAYLGCPDPRMEDAQQKYWRTNLPRLQELKEELDPKNTFHHPQGVMPA | higher | 64502.70 µg/L | 10538.52 µg/L | 2739.24 µg/L | 82.93% | 13.55% | 3.52% | 3226.77 µg/L | 0.00 µg/L | 1646.54 µg/L | 66.21% | 0.00% | 33.79% | – |
| t865746 (protein, expressed in S. cerevisiae strain) MGNTTSIAGRDCLISALGGNSALAVFPNELLWTADVHEYNLNLPVTPAAITYPETAAQIAGVVKCASDYDYKVQARSGGHSFGNYGLGGADGAVVVDMKHFTQFSMDDETYEAVIGPGTTLNDVDIELYNNGKRAMAHGVCPTIKTGGHFTIGGLGPTARQWGLALDHVEEVEVVLANSSIVRASNTQNQDVFFAVKGAAANFGIVTEFKVRTEPAPGLAVQYSYTFNLGSTAEKAQFVKDWQSFISAKNLTRQFYNNMVIFDGDIILEGLFFGSKEQYDALGLEDHFAPKNPGNILVLTDWLGMVGHALEDTILKLVGNTPTWFYAKSLGFRQDTLIPSAGIDEFFEYIANHTAGTPAWFVTLSLEGGAINDVAEDATAYAHRDALFWVQLFMVNPVGPISDTTYEFTDGLYDVLARAVPESVGHAYLGCPDPRMEDAQQKYWRTNLPRLQELKEELDPKNTFHHPQGVMPA | higher | 49195.03 µg/L | 9456.09 µg/L | 2882.16 µg/L | 79.95% | 15.37% | 4.68% | 4751.98 µg/L | 0.00 µg/L | 2061.14 µg/L | 69.75% | 0.00% | 30.25% | higher |
| t865737 (protein) MGNTTSIAGRDCLISALGGNSALAVFPNELLWTADVHEYNLNLPVTPAAITYPETAAQIAGIVKCASDYDYKVQARSGGHSFGNYGLGGADGAVVVDMKHFTQFSMDDETYEAVIGPGTTLNDVDIELYNNGKRAMAHGVCPTIKTGGHFTIGGLGPTARQWGLALDHVEEVEVVLANSSIVRASNTQNQDVFFAVKGAAANFGIVTEFKVRTEPAPGLAVQYSYTFNLGSTAEKAQFVKDWQSFISAKNLTRQFYNNMVIFDGDIILEGLFFGSKEQYDALGLEDHFAPKNPGNILVLTDWLGMVGHALEDTILKLVGNTPTWFYAKSLGFRQDTLIPSAGIDEFFEYIANHTAGTPAWFVTLSLEGGAINDVAEDATAYAHRDVLFWVQLFMVNPVGPISDTTYEFTDGLYDVLARAVPESVGHAYLGCPDPRMEDAQQKYWRTNLPRLQELKEELDPKNTFHHPQGVMPA | higher | 53771.53 µg/L | 10699.35 µg/L | 2873.74 µg/L | 79.85% | 15.89% | 4.27% | 4271.01 µg/L | 0.00 µg/L | 2136.23 µg/L | 66.66% | 0.00% | 33.34% | higher |
| t865714 (protein) MGNTTSIAGRDCLISALGGNSALAVFPNELLWTADVHEYNLNLPVTPAAITYPETAAQIAGVVKCASDYDYKVQARSGGHSFGNYGLGGADGAVVVDMKHFTQFSMDDETYEAVIGPGTTLNDVDIELYNNGKRAMAHGVCPTIKTGGHFTIGGLGPTARQWGLALDHVEEVEVVLANSSIVRASNTQNQDVFFAVKGAAANFGIVTEFKVRTEPAPGLAVQYSYTFNLGSTAEKAQFVKDWQSFISAKNLTRQFYNNMVIFDGDIILEGLFFGSKEQYDALGLEDHFAPKNPGNILVLTDWLGMVGHALEDTILKLVGNTPTWFYAKSLGFRQDTLIPSAGIDEFFEYIANHTAGTPAWFVTLSLEGGAINDVAEDATAYAHRDVLFWVQLFTVNPVGPISDTTYEFTDGLYDVLARAVPESVGHAYLGCPDPRMEDAQQKYWRTNLPRLQELKEELDPKNTFHHPQGVMPA | higher | 32311.22 µg/L | 6827.61 µg/L | 2172.74 µg/L | 78.21% | 16.53% | 5.26% | 1775.08 µg/L | 0.00 µg/L | 1101.76 µg/L | 61.70% | 0.00% | 38.30% | – |
| t865729 (protein) MGNTTSIAGRDCLISALGGNSALAVFPNELLWTADVHEYNLNLPVTPAAITYPETAEQIAGVVKCASDYDYKVQARSGGHSFGNYGLGGADGAVVVDMKHFTQFSMDDETYEAVIGPGTTLNDVDIELYNSGKRAMAHGVCPTIKTGGHFTIGGLGPTARQWGLALDHVEEVEVVLANSSIVRASNTQNQDVFFAVKGAAANFGIVTEFKVRTEPAPGLAVQYSYTFNLGSTAEKAQFVKDWQSFISAKNLTRQFYNNMVIFDGDIILEGLFFGSKEQYDALGLEDHFAPKNPGNILVLTDWLGMVGHALEDTILKLVGNTPTWFYAKSLGFRQDTLIPSAGIDEFFEYIANHTAGTPAWFVTLSLEGGAINDVAEDATAYAHRDVLFWVQLFMVNPVGPISDTTYEFTDGLYDVLARAVPESVGHAYLGCPDPRMEDAQQKYWRTNLPRLQELKEELDPKNTFHHPQGVMPA | higher | 32213.25 µg/L | 8392.06 µg/L | 1856.57 µg/L | 75.86% | 19.76% | 4.37% | 3685.70 µg/L | 0.00 µg/L | 1839.38 µg/L | 66.71% | 0.00% | 33.29% | higher |
| t865743 (protein) MGNTTSIAGRDCLISALGGNSALAVFPNELLWTADVHEYNLNLPVTPAAITYPETAAQIAGVVKCASDYDYKVQARSGGHSFGNYGLGGADGAVVVDMKHFTQFSMDDETYEAVIGPGTTLNDVDIELYNNGKRAMAHGVCPTIKTGGHFTIGGLGPTARQWGLALDHVEEVEVVLANSSIVRASNTQNQDVFFAVKGAAANFGIVTEFKVRTEPAPGLAVQYSYTFNLGSTAEKAQFVKDWQSFISAKNLTRQFYNNMMIFDGDIILEGLFFGSKEQYDALGLEDHFAPKNPGNILVLTDWLGMVGHALEDTILKLVGNTPTWFYAKSLGFRQDTLIPSAGIDEFFEYIANHTAGTPAWFVTLSLEGGAINDVAEDATAYAHRDVLFWVQLFMVNPVGPISDTTYEFTDGLYDVLARAVPESVGHAYLGCPDPRMEDAQQKYWRTNLPRLQELKEELDPKNTFHHPQGVMPA | higher | 58061.40 µg/L | 11245.27 µg/L | 3389.10 µg/L | 79.87% | 15.47% | 4.66% | 4972.60 µg/L | 0.00 µg/L | 2989.22 µg/L | 62.46% | 0.00% | 37.54% | higher |
